# Data as given in the nanobody polyreactivity screen of Harvey et al. (2022).
# Experiment: yeast display, Sf9 membrane polyspecificity reagent, FACS + sequencing; frameworks hold sequencing errors
# In short: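 A synthetic nanobody library was expressed on Saccharomyces cerevisiae BJ5465 by galactose induction for 36–48 hours. The library was stained for 1 hour at 4 °C with 10% biotinylated, detergent-solubilized Sf9 membrane reagent and enriched with streptavidin microbeads before FACS. Low and high (top ~1%) gates were set on anti-HA fluorescence for expression and streptavidin fluorescence for reagent binding, and each polyreactivity label reflects the gate of origin.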
row,Sequence,polyreactivity (PSR sort gate)
1,QVQLVESGGGLVKAGGSLRLSFAASGRIFRRYAMGWCGPAPGKEREFVAAITKSGGSTNYADSVKGRFTISRDNANNTVYLQMNSLKPEDTAVYYCATYPQFYFRYDYWGLGTQVTVSS,high polyreactivity
2,QVQLVEAGGGLVQAGGSLRLIFASSGSTLYLYVMVWYRQAPGKESELVDVISSSSGRTYYADSVKGRFTISRDNAKNSVYLQMNSLKPEDTAVYYCAADNYVGYHWYNYWGQGTQVTVSS,high polyreactivity
3,QVQLVESGGGLVQAGGSLRLICAASGSIFTRNAMGWYRQAPGKEREFVAAISSSGVSTYYADSVKGRFTISRDNAKNTVYLQMISLKPEDTAVYYCAARWGTKSGRYDYWGQGTQVTVSS,high polyreactivity
4,QVQLVESGGGLVQAGGSLRLSCAASGITFKYYTMGWYRQAPGKERELVAAISRGGSTNYADSVKGRFTISRDNAKNTVYLQMNSLKPEDTAVYYCAVDVPEFWWYRVIYDGYYWGQGTQVTVSS,high polyreactivity
5,QVQLVESGGGLVQAGGSLRLSCAASGSIIKRNAMGWYRQAPGKERELVASISSGDGSTNYADSVKGRFTISRDNAKNTVYLQMNSLKPEDTAVYYCNAPFWGYRTSFSYPVVQRFDYWGQGTQVTVSS,low polyreactivity
6,QVQLVESGGGLVQAGGSLRLSCAASGFTIRSYAMGWYRQAPGKERELVAGITWRSSSTYYADSVKGRFTISRDNAKNTVYLQMNSLKPEDTAVYYCAARAVYRFNYWGQGTQVTVSS,high polyreactivity
7,QVQLVESGGCLVQAGGSLRLSWDASGSIFLGYTIGWYRQAPGKERELVAAINSSGGSTYYAYSVKGRFTISRDNAKNTVFLQMNSLKPDDTAVYYCADANSILLFDSWGQGTQVTVSS,low polyreactivity
8,QVQLVESGGGLVQAGGSLRLSCAASGIIVDYYAMGWYRQAPGKERELVATITSGGSTNYADSVKGRFTISRDNAKNTVYLPMNSVKPEDTAVYYCAARTYWFPDIYPGLGMDYWGQGTQVTVSS,low polyreactivity
9,QVQLVESGGGLVQAGGSLRLSCAASGSTFNQNAMGWYRQATGKERELVAAITVDGSSTYYADSVKGRFTISRDNAKNTVYLQMNSLKPEDTAVYYCAAGYSARSSGYTGGYDYWGQGTQVTVSS,high polyreactivity
10,QVQLVESGGGLVQAGGSLRLSCAASGSIFGSNAMGWYRQAPGKERELVAAITNTGRTNYADSVKGRFTISRDYAKNTVYLQMNSLKPEDTAVYYCNADWRRSHAYGYWGQGTQVTVSS,low polyreactivity
11,QVQLVESGGGLVQAGGSLRLSCAASGSTFYTNAMGWYRQAPGKDRELVAVITSRGGGTYYADSVKGRFTISRDYAKNTVYLQMNRLKPEDTSVYYCAAYPLVSWGRHGTKGDYWGQGTQVTVSS,low polyreactivity
12,QVQLVESGGGLVQAGGSLRLSCAASGITFTGYAMGWYRQAPGKERELVAVISETGGSTYADSVKGRFTISRDNAKNTVYLQMNSLKREDTAVYYCAARLWWPYSTAWAKMDYWGQGTQVTVSS,low polyreactivity
13,QVQLVESGGGLVQAGGSLRLSCAASGSTFWWKTMGWYRLAPGKERELVADIRTSGGGTYYADSVKGRFTISRDNAKNNVYLQMYSLKPEDTAVYYCNADPKWEMGSWGQGTQVTVSS,low polyreactivity
14,QVQLVESGGGLVQAGGSLRLSCAASGSTIFIYAMGWYRQAPGKERELVAAISGSGGTTYYADSVKGRFTISRDNAKITVYLQMNSLKPEDTAVYYCATDITLWYAYSHEGLYIGYYWGQGTQVSVSS,low polyreactivity
15,QVQLVESGGGLVQAGGSLRLSCAASGRIFRRNAMGWYRQAPGKERELVAAITSSGGNTYYADSVKGRFTISRDNAKNTVYLQMNSLKPEDTAVYYCAAELRPYITYDGPRKKFYYWGQGTQVTVSS,high polyreactivity
16,QVQLVESGGGLVQAGGSLRLSCAASGFIFYINAMGWYRQAPGKERELVAAISTSGGSTYYADSVKGRFTISRDNAKNTVYLQMNSLKPEDSAVYYCAAEGSYWYYSYDYWGQGTQVTVSS,high polyreactivity
17,QVQLVESGGGLVQAGGSLRLSCAASGSTFPYNAMGWYRQAPGKERELVAAITSSGRTNYADSVKGRFTITLDNAKNTVYLQMNSLKPEDTAVYYCAAGRWYAHRVDYWGQGSQVTVSS,low polyreactivity
18,QVQLVESGGGLVQAGGSLRLSCAASGRIFYSKVMGWYRQAPGKERELVAALSGRTGGTYYADSVKGRFTISRDNAKNTVYLQMNSLKPEDTAVYYCAARVLYYYGSGPYDYWGQGTQVTVSS,low polyreactivity
19,QVQLVESGAGLVQAGGSLRLSCAPSGIIFYWNTMAWYRQAPGKERELVAAISSRSGSTYYADSVKGRFTISRDNAKNTVYLQMISLKPEDTAVFYCAARYGYRYADKGTDYGYWGQGTQVTVSS,high polyreactivity
20,QVQLVESGGGLVQAGGSLRLSCAPSGGTYIYAIGWYRQAPGKERDLVAVITSRSGSTYYADSVKGRFTISRDNAKNTVYLQMISLKPEDTAVYYCAAYTRVRTDPGTSFGYWGQCTQVTVSS,high polyreactivity
21,QVQLVESGGGLVQAGGSLRLSCAASGLTFYTYAMGWYIQAPGTERELVAAISSGGSTNYADSVKGRFTISRDNAKNTVYLQMNSLKPEDTAVYYCAADPSYYTYFSFDLSESDYWGQGTQVTVSS,low polyreactivity
